Ratio to parent data for 10 variants are collected here from article PMC9931213, “Structural basis for ATG9A recruitment to the ULK1 complex in mitophagy initiation” (Science Advances, 2023).

To fix the notation:
B1: MBP-FOLDON-ATG9A (692–839) [bacteriophage T4 | human] / TSF-ATG13^HORMA:GST-ATG101 complex, wild type [human] (parent complex)
chain 1: QLQSLVLSEYASTEMSLHALYMHQLHKQQAQAEPERHVWHRRESDESGESAPDEGGEGARAPQSIPRSASYPCAAPRPGAPETTALHGGFQRRYGGITDPGTVPRVPSHFSRLPLGGWAEDGQSASRHPEPVPEEGSEDELPPQVHKV
chain 2: METDLNSQDRKDLDKFIKFFALKTVQVIVQARLGEKICTRSSSSPTGSDWFNLAIKDIPEVTHEAKKALAGQLPAVGRSMCVEISLKTSEGDSMELEIWCLEMNEKCDKEIKVSYTVYNRLSLLLKSLLAITRVTPAYRLSRKQGHEYVILYRIYFGEVQLSGLGEGFQTVRVGTVGTPVGTITLSCAYRINLAFMS
chain 3: MNCRSEVLEVSVEGRQVEEAMLAVLHTVLLHRSTGKFHYKKEGTYSIGTVGTQDVDCDFIDFTYVRVSSEELDRALRKVVGEFKDALRNSGGDGLGQMSLEFYQKKKSRWPFSDECIPWEVWTVKVHVVALATEQERQICREKVGEKLCEKIINIVEVMNRHEYLPKMPTQSEVDNVFDTGLRDVQPYLYKISFQITDALGTSVTTTMRRLIKDTLAL

The variants in this experiment derive from B1. Description: GST pull-down; n = 3; read off a plot.
For chain 2 F19D, the ratio to parent was around 0.02.

As to chain 2 E83L, the ratio to parent is around 0.88.

Regarding chain 2 Y115D, the ratio to parent is around 0.97.

Regarding chain 2 Y118D, the ratio to parent is around 0.03.

chain 3 Y45D: the ratio to parent is around 0.02.

On to chain 2 K15D, for which the ratio to parent was around 0.26.

As for chain 2 W50D, the ratio to parent is around 0.02.

For chain 3 W110D, chain 3 F112D, the ratio to parent was around 0.8.

With chain 2 F16D, the ratio to parent was around 0.1.

On to chain 2 K18D, for which the ratio to parent is around 0.11.
